The target of assay [1] is T1, Histidine-tagged human Siglec-5 (NovoProtein) (human, UniProt O15389 17-434, limits assumed).
T1 construct: Bought soluble protein; also called His-tagged human Siglec-5; not shown: histidine tag
T1 sequence: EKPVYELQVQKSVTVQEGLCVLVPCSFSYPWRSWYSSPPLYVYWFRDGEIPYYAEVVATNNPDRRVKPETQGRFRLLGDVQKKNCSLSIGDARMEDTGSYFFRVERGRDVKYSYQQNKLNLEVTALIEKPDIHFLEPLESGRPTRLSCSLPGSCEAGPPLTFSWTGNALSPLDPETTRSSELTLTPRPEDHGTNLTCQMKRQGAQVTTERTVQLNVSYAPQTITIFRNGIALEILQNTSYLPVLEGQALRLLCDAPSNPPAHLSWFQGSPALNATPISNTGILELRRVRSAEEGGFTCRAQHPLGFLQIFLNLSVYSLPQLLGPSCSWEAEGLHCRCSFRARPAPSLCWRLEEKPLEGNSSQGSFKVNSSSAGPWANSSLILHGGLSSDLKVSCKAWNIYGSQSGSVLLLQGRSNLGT
Nature of the assay: array SPR, antibody immobilized, His-tagged human Siglec-5 (0-500 nM) in solution; apparent affinity. As for the experimental part: The apparent binding affinities of the anti-Siglec-5 antibodies were measured by array surface plasmon resonance (SPR), according to standard techniques (Abdiche, et al. (2016) MAbs 8:264-277). Briefly, anti-Siglec-5 antibodies were immobilized on a HC 30M chip at four different densities, at antibody concentration of 10 μg/mL, 2.5 μg/mL, 0.63 μg/mL, and 0.16 μg/mL. Varying concentrations (0-500 nM) of Histidine-tagged human Siglec-5 or cynomolgus Siglec-5 (NovoProtein) were then bound to the captured anti-Siglec-5 surface (5 min injection time, 15 min dissociation time) in HBS-EP⁺/1 mg/mL BSA running buffer. Kinetic analysis was performed using Carterra software to extract association and dissociation rate constants (kₐ and kd, respectively) for each antibody. Apparent affinity constants (KD) were calculated from the ratio kd/kₐ. None of the anti-Siglec-5 antibodies bound to cynomolgus Siglec-5 protein.

The target of another assay is T2, human Siglec-14 (human, UniProt Q08ET2 17-396).
T2 construct: also called CHO-S14; CHO-S hSiglec-14
T2 sequence: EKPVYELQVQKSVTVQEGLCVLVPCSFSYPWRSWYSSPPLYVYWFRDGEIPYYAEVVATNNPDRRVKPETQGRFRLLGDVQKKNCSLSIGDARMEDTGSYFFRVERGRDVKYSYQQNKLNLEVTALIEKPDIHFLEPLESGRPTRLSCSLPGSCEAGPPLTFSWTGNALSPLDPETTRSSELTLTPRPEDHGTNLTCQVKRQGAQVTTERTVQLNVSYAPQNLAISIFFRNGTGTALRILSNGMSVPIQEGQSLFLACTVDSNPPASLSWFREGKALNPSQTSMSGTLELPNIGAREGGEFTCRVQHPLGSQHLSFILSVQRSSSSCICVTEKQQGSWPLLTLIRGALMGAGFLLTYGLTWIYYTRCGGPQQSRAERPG
Nature of the assay: FACS, CHO cells stably transfected with human Siglec-14 (CHO-S14), fluorescent secondary antibody; y-axis Binding (Fold over background); antibody concentration not shown. As for the experimental part: The anti-Siglec-5 antibodies were evaluated for their ability to bind to CHO cells which were stably transfected with human Siglec-5 (CHO-S5) or human Siglec-14 (CHO-S14). The anti-Siglec-5 antibodies were also evaluated for their ability to bind to primary human neutrophils. Cells were incubated with various dilutions of the anti-Siglec-5 antibodies for 30 minutes on ice in the dark, followed by a 30-minute incubation with a fluorescently-conjugated anti-human IgG secondary antibody. Cells were washed twice in FACS buffer (PBS+2% FBS, 2 mM EDTA), and flow cytometry was performed on a BD FACS Canto. Data were analyzed using FlowJo software (Ashland, Oreg.). In the figures, “hIgG1” and “mIgG1” refer to isotype control antibodies, and “S5/14 1A5” refers to a commercially available antibody that binds both Siglec-5 and Siglec-14 (BioLegend, clone 1A5).
For orientation: In flow cytometry, cells or beads pass a laser one at a time.

Positions count from the first letter of the chain named.

B1: S5-174 (antibody, V domains shown)
VH: QAYLQQSGAELVKPGTSVKLSCKASGYTFTNYWMHWVKQRPGQGLEWVGEIDPSDGYVTYNQNFKGKATLTVDRSSSTAYMQLSSLTSEDSAVYYCAGVYYGNSIYYAMDYWGQGTSVTVSS
VL: DIQMTQTRNFMSTSVGDRVNITCKATQDVGTAVAWYQVKPGQSPKLLIYWTSTRHTGVPDRFTGSGSGTDFTLTIKNVQSEDLADYFCQQYRSYPFTFGSGTKLEIK
notes: Mouse-derived variable domains; expressed in mammalian cells as full antibody; hIgG1 isotype control
By koff is commonly meant the rate constant with which the complex falls apart. What is called kon is the second-order rate constant of association. In the case of B1, in assay [1], the Kd was determined as 1.7 nM, the koff was found to be 0.00043 s⁻¹ and the kon came to 250000 M⁻¹ s⁻¹. The binding result in the assay with human Siglec-14 is recorded as “no binding”.

B2: S5-175 (antibody, V domains shown)
VH: QAYLQQSGAVLARPGASVRMSCKASGYSFTSYYMHWVKQRPGQGLEWIGAIYPGNSDTSYNQKFKGKAKLTAVTSASTAYMEVSSLTNEDSAVYYCTPLVRPRPYGMDYWGQGTSVTVSS
VL: DVVLTQSTSSLSASLGDRVTISCRASQDISNYLNWYQQKPDGTVKLLIYYTSRLHSGVPSRFSGSGSGTDYSLTISNLEQEDIATYFCQQGNTLPWTFGGGTKLEIK
notes: as for B1
In the case of B2, in assay [1], the Kd amounted to 15 nM, the off-rate constant (koff) was determined as 0.00045 s⁻¹ and the on-rate constant (kon) is 29000 M⁻¹ s⁻¹. In addition, the binding result with human Siglec-14 is “no binding”.

B3: S5-182 (antibody, V domains shown)
VH: QAYLQQSGAELVKPGASVKLSCKASGYTFTSYWLHWVKQRPGQGLEWIGMIHPNSGSTDYNERFKSKATLIVDKSSSTAYMQLSSLTSEDSAVYYCAKTFYYFDYWGQGTALTVSS
VL: DVVMTQSPSSMYASLGERVTITCKASQDINSYLSWFQQKPGKSPKTLIYRANRLVDGVPSRFSGSGSGQDYSLTISSLEYEDMGIYYCLQYDELYTFGGGTKLEIK
notes: as for B1
Take B3: in assay [1], the Kd came out at 5.3 nM, the koff was found to be 0.00085 s⁻¹ and the kon came to 160000 M⁻¹ s⁻¹. Further, the binding result with human Siglec-14 is on record as “no binding”.

B4: S5-183 (antibody, V domains shown)
VH: QAYLQQSGPGLVAPSQSLSITCTVSGFSVTSYGVSWVRQPPGKGLEWLGVIWGDGSTNYHSDLISRLSISKDNSKSQVFLKLNSLQIADTATYYCARPRAFYYGSRGYWYFDVWGTGTTVAVSS
VL: DIVMTQSPASLSASVGETVTITCRASENIYSYLAWYQQKQGKSPQLLVYNTKTLVEGVPSRFSGSGSDTQFSLKINSLQPEDFGTYYCQHHYGPPPTFGTGTKLELK
notes: as for B1
As for B4, in assay [1], the Kd amounted to 61 nM, the koff stood at 0.0013 s⁻¹ and the kon was 21000 M⁻¹ s⁻¹. Further, the binding result with human Siglec-14 is listed as “no binding”.

B5: S5-202 (antibody, V domains shown)
VH: B4 VH with F27L, V29L, D62A, I87T, A88D, R97K, R99G, G107Y, A121T
VL: DIQMTQAHKVMSTSVGDRVSITCKASQDVSTAVAWYQQKPGQSPKLLIYSASYRYTGVPDRFTGSGSGTDFTFTISSVQAEDLAVYYCQQHYSPPPTFGGGTRREIK
notes: Mouse-derived variable domains; expressed in mammalian cells as full antibody; also called S5-PN202
In the case of B5, in assay [1], the Kd was found to be 31 nM, the koff came out at 0.0011 s⁻¹ and the kon worked out at 36000 M⁻¹ s⁻¹. The binding result with human Siglec-14 is on record as “no binding”.

B6: S5-176 (antibody, V domains shown)
VH: QAYLQQSGPELVKPGASVKVSCKASGYSFTDYNIYWVKQSHGKSLEWIGYFDPYNGGTNYNQRFKDKATLTVDKSSSTAFMQLNSLTSEDSAVYYCAREGYGYDDREWFAYWGQGTLVTVSA
VL: DIVMTQSPSSLAASVGEKVTMSCKSSQSLLYSTNQMTYLAWYQQKPGQSPKLLIFWASTRESGVPDRFTGSGSGTDFTLTISSVKAEDLAVYYCHQFYSYPFTFGSGTRWEIK
notes: as for B1
For B6, in assay [1], the Kd was determined as 1.1 nM, the koff worked out at 0.00051 s⁻¹ and the kon was 470000 M⁻¹ s⁻¹. In addition, the binding result in the assay with human Siglec-14 is “no binding”.

(Values after US20210395361A1 (Alector, published 2021).)
